EP4556018A1 (OSAKA UNIVERSITY, dated 2025)
Values belong to the binder of their own block, whether it stands above or below them.

Assays:
[1] = target: T1, HDAC1 of mouse Treg cells (mouse, UniProt O09106 1-482); assay: immunoprecipitation of endogenous Foxp3 from Ikzf1-expressing mouse Treg cells, Simple Western
T1 construct: also called HDAC1 protein

[2] = target: T2, Flag-IkΔE5 (Mus musculus, UniProt Q03267 1-517, limits assumed); assay: co-immunoprecipitation with anti-Flag-M2 antibody from HEK293T lysate, Western blot with anti-c-Myc
T2 construct: Forcedly expressed in HEK293T cells; also called ΔE5 variant; Ikzf1ΔE5; not shown: Flag tag
T2 sequence (Q03267 other isoform, or with tags, fused parts or gaps mutant limits assumed): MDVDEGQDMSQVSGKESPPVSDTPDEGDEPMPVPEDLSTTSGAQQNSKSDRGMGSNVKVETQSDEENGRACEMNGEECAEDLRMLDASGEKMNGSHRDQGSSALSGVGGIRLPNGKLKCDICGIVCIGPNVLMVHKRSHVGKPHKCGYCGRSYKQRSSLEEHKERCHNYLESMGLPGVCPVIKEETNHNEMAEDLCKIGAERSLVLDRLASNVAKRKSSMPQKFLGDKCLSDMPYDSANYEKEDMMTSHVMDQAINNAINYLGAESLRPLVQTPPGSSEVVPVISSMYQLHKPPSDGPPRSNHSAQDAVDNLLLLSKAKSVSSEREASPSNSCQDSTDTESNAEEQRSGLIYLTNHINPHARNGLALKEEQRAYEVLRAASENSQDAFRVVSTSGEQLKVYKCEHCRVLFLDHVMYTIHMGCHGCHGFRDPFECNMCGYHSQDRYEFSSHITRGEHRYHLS

T1 sequence (O09106 whole entry): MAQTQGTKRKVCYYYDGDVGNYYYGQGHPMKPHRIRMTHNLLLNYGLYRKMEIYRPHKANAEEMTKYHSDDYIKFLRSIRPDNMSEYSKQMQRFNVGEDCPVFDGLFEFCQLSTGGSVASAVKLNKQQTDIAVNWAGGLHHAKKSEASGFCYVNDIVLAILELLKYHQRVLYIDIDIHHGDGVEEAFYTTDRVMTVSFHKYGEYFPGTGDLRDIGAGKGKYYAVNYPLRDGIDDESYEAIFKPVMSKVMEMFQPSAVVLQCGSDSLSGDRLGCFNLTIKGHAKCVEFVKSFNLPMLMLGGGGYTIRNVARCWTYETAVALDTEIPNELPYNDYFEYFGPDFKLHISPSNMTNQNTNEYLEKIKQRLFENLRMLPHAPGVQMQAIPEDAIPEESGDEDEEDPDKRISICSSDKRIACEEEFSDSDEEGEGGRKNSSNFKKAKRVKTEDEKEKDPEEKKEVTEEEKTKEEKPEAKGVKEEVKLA

- binding result [1]: binds
B1: endogenous Foxp3 of mouse Treg cells (other, UniProt Q99JB6 1-429, looked up)
chain: MPNPRPAKPMAPSLALGPSPGVLPSWKTAPKGSELLGTRGSGGPFQGRDLRSGAHTSSSLNPLPPSQLQLPTVPLVMVAPSGARLGPSPHLQALLQDRPHFMHQLSTVDAHAQTPVLQVRPLDNPAMISLPPPSAATGVFSLKARPGLPPGINVASLEWVSREPALLCTFPRSGTPRKDSNLLAAPQGSYPLLANGVCKWPGCEKVFEEPEEFLKHCQADHLLDEKGKAQCLLQREVVQSLEQQLELEKEKLGAMQAHLAGKMALAKAPSVASMDKSSCCIVATSTQGSVLPAWSAPREAPDGGLFAVRRHLWGSHGNSSFPEFFHNMDYFKYHNMRPPFTYATLIRWAILEAPERQRTLNEIYHWFTRMFAYFRNHPATWKNAIRHNLSLHKCFVRVESEKGAVWTVDEFEFRKKRSQRPNKCSNPCP
notes: Immunoprecipitated with anti-Foxp3 antibody from Treg cell lysates

- binding result [2]: no binding
B2: Myc-Foxp3 (other, UniProt Q99JB6 1-429, looked up)
chain: B1 chain
notes: Forcedly expressed in HEK293T cells; not shown: Myc tag
